Three molecules from publication PMC5704011, “Discovery of High-Affinity PDGF-VEGFR Interactions: Redefining RTK Dynamics” (Scientific Reports, 2017) can be followed below.

Holding throughout (conditions): both partners purified
For assay [1], the target named is T1, human recombinant PDGFRα (human, UniProt P16234 24-528).
T1 construct: Platelet-derived growth factor receptor alpha, human; also called PDGFRa; source: bought: R&D Systems (Cat #322-PR-050/CF), human recombinant
Description: SPR; BIAcore 3000, 25 °C, CM5 chip; receptor immobilised by amine coupling (~200-500 R.U.); ligand injected at 40, 20 and 10 nM in HBS-EP pH 7.4 (10 mM HEPES, 3 mM EDTA, 150 mM NaCl, 0.005% TWEEN-20); angiopoietin-4 reference cell subtracted; global 1:1 Langmuir fit; χ^2-to-Rmax < 1.0 taken as a true interaction. Background: Surface plasmon resonance follows binding to a sensor surface in real time, without labels.

The target in the next assay is T2, human recombinant VEGFR2 (human, UniProt P35968 20-764).
T2 construct: Vascular endothelial growth factor receptor 2 (KDR), human; source: bought: R&D Systems (Cat. #357-KD-050/CF), human recombinant
Described as above.

Assay [2] addresses T3, human recombinant PDGFRα (human, UniProt P16234 24-1089).
T3 construct: platelet-derived growth factor receptor alpha, human, recombinant; also called PDGFRa; source: bought: R&D Systems
Nature of the assay: SPR; BIAcore 3000, 25 °C, CM5 chip; receptor immobilised by amine coupling (~200-500 R.U.); ligand injected at 10, 20 and 40 nM, 30 uL/min, 10 min dissociation; HBS-EP pH 7.4 (10 mM HEPES, 3 mM EDTA, 150 mM NaCl, 0.005% TWEEN-20); angiopoietin-4 reference cell subtracted; global 1:1 Langmuir fit; χ2-to-Rmax > 1.0 or negative association curves taken as no true interaction.

Another assay concerns the target T4, human recombinant PDGFRβ (human, UniProt P09619 33-1106).
T4 construct: platelet-derived growth factor receptor beta, human, recombinant; source: bought: R&D Systems
Described as above.

The Kd is the constant that tells how readily two partners part at equilibrium. One may read the koff as a measure of how fast the partners let go of each other. What is called kon is a measure of how fast the partners come together.

T4 sequence (P09619 33-1106): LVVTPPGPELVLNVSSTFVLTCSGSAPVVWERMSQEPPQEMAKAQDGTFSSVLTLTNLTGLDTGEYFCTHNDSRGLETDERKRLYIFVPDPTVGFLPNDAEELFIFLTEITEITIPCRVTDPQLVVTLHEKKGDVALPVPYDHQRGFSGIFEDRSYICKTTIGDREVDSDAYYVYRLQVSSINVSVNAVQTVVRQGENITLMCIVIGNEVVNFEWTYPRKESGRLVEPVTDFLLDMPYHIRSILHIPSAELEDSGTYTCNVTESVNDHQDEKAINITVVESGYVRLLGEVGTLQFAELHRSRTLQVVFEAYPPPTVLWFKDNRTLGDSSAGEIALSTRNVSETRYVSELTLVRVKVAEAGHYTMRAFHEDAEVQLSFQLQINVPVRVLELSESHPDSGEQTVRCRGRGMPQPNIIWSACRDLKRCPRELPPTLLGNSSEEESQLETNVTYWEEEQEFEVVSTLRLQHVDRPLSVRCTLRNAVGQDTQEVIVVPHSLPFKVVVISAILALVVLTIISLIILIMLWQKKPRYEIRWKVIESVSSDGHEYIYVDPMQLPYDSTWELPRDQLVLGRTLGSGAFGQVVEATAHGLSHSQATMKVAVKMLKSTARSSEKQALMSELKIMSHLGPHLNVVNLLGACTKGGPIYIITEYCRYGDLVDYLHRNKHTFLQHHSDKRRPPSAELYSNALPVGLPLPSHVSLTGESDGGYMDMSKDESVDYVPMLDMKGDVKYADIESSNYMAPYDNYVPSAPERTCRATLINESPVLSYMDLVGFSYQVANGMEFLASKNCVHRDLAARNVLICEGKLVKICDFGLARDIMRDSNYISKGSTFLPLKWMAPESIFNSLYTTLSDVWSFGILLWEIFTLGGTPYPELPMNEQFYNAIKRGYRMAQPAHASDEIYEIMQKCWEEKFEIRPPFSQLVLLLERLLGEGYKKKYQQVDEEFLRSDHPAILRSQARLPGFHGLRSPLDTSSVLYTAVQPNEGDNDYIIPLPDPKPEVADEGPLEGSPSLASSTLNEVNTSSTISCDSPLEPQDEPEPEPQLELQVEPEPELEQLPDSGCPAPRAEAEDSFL
T3 sequence (P16234 24-1089): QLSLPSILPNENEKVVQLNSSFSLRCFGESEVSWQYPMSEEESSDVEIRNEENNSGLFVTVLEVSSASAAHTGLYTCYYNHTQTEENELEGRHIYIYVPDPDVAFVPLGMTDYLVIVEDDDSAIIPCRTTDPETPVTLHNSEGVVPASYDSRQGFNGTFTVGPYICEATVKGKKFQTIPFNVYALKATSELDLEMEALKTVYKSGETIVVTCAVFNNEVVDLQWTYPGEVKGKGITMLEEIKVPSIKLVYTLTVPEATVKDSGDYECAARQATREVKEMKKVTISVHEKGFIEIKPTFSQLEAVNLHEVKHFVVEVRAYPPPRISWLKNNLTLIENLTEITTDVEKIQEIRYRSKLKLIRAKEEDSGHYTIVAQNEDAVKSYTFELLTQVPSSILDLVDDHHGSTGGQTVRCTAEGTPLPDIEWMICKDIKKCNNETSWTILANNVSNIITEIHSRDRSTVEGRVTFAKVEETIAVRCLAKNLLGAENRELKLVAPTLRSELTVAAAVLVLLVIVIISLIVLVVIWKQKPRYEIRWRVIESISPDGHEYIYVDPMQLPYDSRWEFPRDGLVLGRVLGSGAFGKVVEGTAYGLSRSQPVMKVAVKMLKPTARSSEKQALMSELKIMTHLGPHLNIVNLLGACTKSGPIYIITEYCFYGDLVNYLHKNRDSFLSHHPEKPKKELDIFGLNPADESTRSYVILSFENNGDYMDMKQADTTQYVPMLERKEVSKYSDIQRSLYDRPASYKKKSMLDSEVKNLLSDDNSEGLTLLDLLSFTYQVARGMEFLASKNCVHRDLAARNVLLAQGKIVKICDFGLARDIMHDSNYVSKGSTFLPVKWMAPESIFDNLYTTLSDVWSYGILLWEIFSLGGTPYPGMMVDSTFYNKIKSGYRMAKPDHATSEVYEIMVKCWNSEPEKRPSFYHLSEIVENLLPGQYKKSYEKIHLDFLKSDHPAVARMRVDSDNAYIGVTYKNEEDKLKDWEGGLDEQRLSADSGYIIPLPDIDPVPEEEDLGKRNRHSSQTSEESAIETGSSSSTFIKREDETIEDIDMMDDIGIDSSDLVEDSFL
T1 sequence (P16234 24-528): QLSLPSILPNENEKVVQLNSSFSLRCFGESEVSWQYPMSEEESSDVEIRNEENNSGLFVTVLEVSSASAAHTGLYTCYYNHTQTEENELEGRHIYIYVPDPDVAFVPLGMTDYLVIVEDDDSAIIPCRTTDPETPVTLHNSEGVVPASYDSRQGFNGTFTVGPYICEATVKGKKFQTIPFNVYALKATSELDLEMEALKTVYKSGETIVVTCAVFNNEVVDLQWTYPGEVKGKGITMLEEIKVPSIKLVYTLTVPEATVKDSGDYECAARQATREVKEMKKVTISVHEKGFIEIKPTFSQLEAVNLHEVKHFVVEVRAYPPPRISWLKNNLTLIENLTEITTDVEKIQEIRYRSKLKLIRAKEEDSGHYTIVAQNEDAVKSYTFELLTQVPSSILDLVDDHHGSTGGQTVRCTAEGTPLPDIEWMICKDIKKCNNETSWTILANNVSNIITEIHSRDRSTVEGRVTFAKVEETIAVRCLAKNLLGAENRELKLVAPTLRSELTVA
T2 sequence (P35968 20-764): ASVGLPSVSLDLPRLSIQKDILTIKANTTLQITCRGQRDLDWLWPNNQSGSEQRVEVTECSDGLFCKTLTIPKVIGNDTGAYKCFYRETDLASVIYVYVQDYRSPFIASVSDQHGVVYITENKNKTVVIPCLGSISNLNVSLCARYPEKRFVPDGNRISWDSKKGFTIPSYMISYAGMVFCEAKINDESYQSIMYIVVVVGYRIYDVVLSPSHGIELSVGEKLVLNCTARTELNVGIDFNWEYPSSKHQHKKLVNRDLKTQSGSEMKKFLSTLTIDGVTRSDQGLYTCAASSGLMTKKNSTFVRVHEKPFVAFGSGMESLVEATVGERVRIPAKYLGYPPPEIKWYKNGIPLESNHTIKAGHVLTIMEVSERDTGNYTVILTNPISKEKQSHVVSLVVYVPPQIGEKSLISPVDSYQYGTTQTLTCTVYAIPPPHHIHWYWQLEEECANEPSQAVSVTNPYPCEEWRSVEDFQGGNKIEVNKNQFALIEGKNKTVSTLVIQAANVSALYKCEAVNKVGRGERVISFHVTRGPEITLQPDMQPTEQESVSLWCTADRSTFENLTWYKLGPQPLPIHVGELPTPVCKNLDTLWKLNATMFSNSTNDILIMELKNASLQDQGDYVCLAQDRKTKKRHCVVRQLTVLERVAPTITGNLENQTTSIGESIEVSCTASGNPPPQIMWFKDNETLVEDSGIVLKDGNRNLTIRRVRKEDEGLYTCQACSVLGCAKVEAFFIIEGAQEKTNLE

B1: human recombinant PDGF-BB (ligand, UniProt P01127 82-190, looked up)
chain: SLGSLTIAEPAMIAECKTRTEVFEISRRLIDRTNANFLVWPPCVEVQRCSGCCNNRNVQCRPTQVQLRPVQVRKIEIVRKKPIFKKATVTLEDHLACKCETVAAARPVT
notes: Platelet-derived growth factor subunit B, human; Homodimer of B chains by its name; source: bought: R&D Systems (Cat. #220-BB-050), human recombinant
In the case of B1, the figures for the Kd in the assay with human recombinant PDGFRα [1] and in the assay with human recombinant VEGFR2 were 420 nM and 37 nM, respectively.

B2: human recombinant PDGF-CC (ligand)
chain: VVDLNLLTEEVRLYSCTPRNFSVSIREELKRTDTIFWPGCLLVKRCGGNCACCLHNCNECQCVPSKVTKKYHEVLQLRPKTGVRGLHKSLTDVALEHHEECDCVCRGSTGG
modifications: disulfide-linked homodimer; limits not given, active growth factor domain after cleavage at Arg234 taken by convention
Turning to B2, in the assay with human recombinant PDGFRα [2], the dissociation rate constant (koff) turned out to be 0.0002 s⁻¹ and the kon is 5000 M⁻¹ s⁻¹. Further, in the assay with human recombinant PDGFRβ, the off-rate constant (koff) stood at 0.0014 s⁻¹ and the kon amounted to 740000 M⁻¹ s⁻¹.

B3: human recombinant PDGF-CC (ligand, UniProt Q9NRA1 235-345, looked up)
chain: VVDLNLLTEEVRLYSCTPRNFSVSIREELKRTDTIFWPGCLLVKRCGGNCACCLHNCNECQCVPSKVTKKYHEVLQLRPKTGVRGLHKSLTDVALEHHEECDCVCRGSTGG
notes: Platelet-derived growth factor C, human; Homodimer by its name; source: bought: R&D Systems (Cat. #1687-CC-025), human recombinant
As to B3, the Kd in the assay with human recombinant PDGFRα [1] is 3.4 nM.
